Here are results for one molecule from patent publication US20210395370A1 (AstraZeneca / MedImmune, published 2021).

In assay [1] the target is T1, CD22 receptor on the Daudi cell line (human, UniProt P20273 20-847).
T1 sequence (looked up): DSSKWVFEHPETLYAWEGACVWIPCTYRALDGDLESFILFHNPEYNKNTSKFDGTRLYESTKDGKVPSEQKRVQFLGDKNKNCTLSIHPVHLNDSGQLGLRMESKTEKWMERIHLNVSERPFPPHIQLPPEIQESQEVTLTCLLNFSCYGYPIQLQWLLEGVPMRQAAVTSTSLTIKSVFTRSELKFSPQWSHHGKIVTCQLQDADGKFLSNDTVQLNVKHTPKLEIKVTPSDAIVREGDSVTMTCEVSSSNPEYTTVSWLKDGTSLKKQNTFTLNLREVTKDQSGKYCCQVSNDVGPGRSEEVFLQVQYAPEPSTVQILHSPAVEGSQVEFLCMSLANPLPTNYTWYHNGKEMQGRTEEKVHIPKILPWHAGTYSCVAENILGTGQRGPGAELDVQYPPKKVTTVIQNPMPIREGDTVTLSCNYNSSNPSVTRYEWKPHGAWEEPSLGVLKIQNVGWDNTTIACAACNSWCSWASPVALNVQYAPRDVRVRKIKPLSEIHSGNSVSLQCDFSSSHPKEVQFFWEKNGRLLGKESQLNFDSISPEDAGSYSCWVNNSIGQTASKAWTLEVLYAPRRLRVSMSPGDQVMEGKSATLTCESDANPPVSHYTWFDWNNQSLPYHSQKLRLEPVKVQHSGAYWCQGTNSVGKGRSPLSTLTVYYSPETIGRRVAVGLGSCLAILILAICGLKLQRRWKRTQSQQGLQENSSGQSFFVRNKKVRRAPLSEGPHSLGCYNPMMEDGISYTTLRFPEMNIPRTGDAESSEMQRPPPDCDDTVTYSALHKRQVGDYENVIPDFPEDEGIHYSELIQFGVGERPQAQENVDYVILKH
The experiment in a line: cell-based or functional assay.

Assay [2] concerns the target T1, CD22 receptor on the Daudi cell line. In words: cell-based or functional assay. This is another data set of the same source.

B1: CAT-8015 (other)
VH: MEVQLVESGGGLVKPGGSLKLSCAASGFAFSIYDMSWVRQTPEKCLEWVAYISSGGGTTYYPDTVKGRFTISRDNAKNTLYLQMSSLKSEDTAMYYCARHSGYGTHWGVLFAYWGQGTLVTVSAKASGGPEGGSLAALTAHQACHLPLETFTRHRQPRGWEQLEQCGYPVQRLVALYLAARLSWNQVDQVIRNALASPGSGGDLGEAIREQPEQARLALTLAAAESERFVRQGTGNDEAGAANGPADSGDALLERNYPTGAEFLGDGGDVSFSTRGTQNWTVERLLQAHRQLEERGYVFVGYHGTFLEAAQSIVFGGVRARSQDLDAIWRGFYIAGDPALAYGYAQDQEPDARGRIRNGALLRVYVPRSSLPGFYRTSLTLAAPEAAGEVERLIGHPLPLRLDAITGPEEEGGRLETILGWPLAERTVVIPSAIPTDPRNVGGDLDPSSIPDKEQAISALPDYASQPGKPPREDLK
VL: MDIQMTQTTSSLSASLGDRVTISCRASQDISNYLNWYQQKPDGTVKLLIYYTSILHSGVPSRFSGSGSGTDYSLTISNLEQEDFATYFCQQGNTLPWTFGCGTKLEIK
modifications: Asn-358 partially deamidated to Asp-358 and iso-Asp-358 in the preparations tested (extent differs by pool)
As for B1, in assay [1], the “Relative Potency (%) in apoptosis bioassay (Caspase-Glo 3/7, Daudi cells; EC50 of Reference Standard / EC50 of test sample); sample: QHP Eluate Pool, large scale (17% pre-peak)” value worked out at 75% and the “Relative Potency (%) in apoptosis bioassay (Caspase-Glo 3/7, Daudi cells; EC50 of Reference Standard / EC50 of test sample); sample: QHP Load Pool, large scale (50.3% pre-peak)” value worked out at 51%. Besides, in assay [2], the “Relative Potency (%) in apoptosis bioassay (Caspase-Glo 3/7, Daudi cells; EC50 of Reference Standard / EC50 of test sample); sample: QHP Eluate Pool, bench scale (16.5% pre-peak)” value is 80% and the “Relative Potency (%) in apoptosis bioassay (Caspase-Glo 3/7, Daudi cells; EC50 of Reference Standard / EC50 of test sample); sample: QHP Load Pool, bench scale (53.8% pre-peak)” value was 52%.
